From the Human Domainome abundance scans (Beltran et al. 2025)

B1: POU domain, class 4, transcription factor 1, residues 266 to 347; numbered along this chain, Q01851 (parent)
chain: RELEAFAERFKQRRIKLGVTQADVGSALANLKIPGVGSLSQSTICRFESLTLSHNNMIALKPILQAWLEEAEGAQREKMNKP

Variants of: B1
Assay: abundance fitness (aPCA) (normalised: wild type 0, dead -1); higher = more abundant; growth selection in yeast, the domain comes from the species named
Conditions: Homo sapiens

Abundance fitness, by site and new letter:
N55: P 0.104; A 0.023; K -0.038; D -0.094; R 0.045; H -0.06; L -0.016; V -0.051; F -0.18; W -0.023; T 0.034; C -0.036; I -0.093; G 0.044
H54: C -0.089; E 0.058; K 0.007; P 0.041; T 0.08; S 0.057; F -0.02; W -0.014; D -0.039; L 0.046; Q -0.02; M 0.044; N -0.075; Y 0.057; R 0.053; A 0.01; I 0.091
L60: F -0.355; I -0.303; E -0.581; H -0.392; A -0.344; W -0.605; G -0.696; C 0.074; N -0.223; S -0.253; V -0.029; T -0.452
S49: Y -0.396
L68: W -0.626; H -0.329; I 0.037; G -0.821; R -0.774; P -0.715; E -0.672; V -0.074; S -0.497; C -0.29; T -0.459; Q -0.568; Y -0.304; M -0.112
Q65: L -0.073; E 0.061; K -0.049; Y -0.075; D 0.01; R -0.162; T -0.06; H -0.047; M -0.056; W -0.144; G -0.086; C -0.14; P -0.98; N -0.078; F -0.112; I -0.105; A -0.041
L50: H 0.044; I -0.13; F 0.052; M 0.055; E -0.26; D -0.425; K 0.029; Q -0.01; A 0.031; W -0.233; G 0.049; C 0.095; T -0.062; V -0.006; S 0.018; Y 0.008; R 0.012; N -0.032
S53: R -0.139; W -0.533; C 0.004; Y -0.131; K -0.269; L -0.518; T -0.174; D -0.136; P 0.02; A -0.039; I -0.173; V -0.389; Q -0.013; M -0.419; N -0.114; F -0.903; G -0.039
E69: L -0.036; C -0.168; T -0.085; P -0.612; D 0.011; Q -0.018; F -0.174; R -0.111; S -0.054; N -0.022; A -0.022; G -0.207; Y -0.171; H -0.076; I 0.056; K -0.036; V -0.073; W -0.224
L52: I -0.496; C -0.351; E -0.132; V -0.588; H -0.234; R -0.986; K -1.28; Y -0.701; F -0.24; S -0.557; D -0.229; W -0.546; T -0.472
A66: Y -0.104; S -0.005; I -0.141; C -0.049; E 0.012; R -0.022; G -0.029; W -0.192; T -0.012; H 0.001; N -0.017; M -0.041; K 0.044; L -0.125; Q -0.046; F -0.113; P -0.619; D 0.013; V -0.12
M57: G -0.449; T -0.374; V -0.273; H -0.399; C -0.268; S -0.309; R -0.775; W -0.289; E -0.706; I -0.16; F -0.309; L -0.031; P -0.606; K -0.901; Q -0.197; D -0.935; A -0.132; N -0.19
I63: C -0.028; K -0.137; P -0.203; L -0.113; M -0.168; D -0.41; N -0.17; R -0.154; G -0.274; S -0.204; F 0.027; V 0.002; Q -0.247; T 0.034; E -0.295
I58: G -0.147; D -0.167; C -0.094; M -0.042; S -0.013; W -0.107; T 0.033; E -0.023; A 0.041; F -0.075; N 0.021; V -0.035; L -0.031; Y -0.118; H -0.169
P62: D -0.188; S -0.243; L -0.524; N -0.286; M -0.687; F -0.518; I -0.816; E -0.413; T -0.192; A -0.366; G -0.2; R -0.347; V -0.485; K -0.243; Y -0.562; Q -0.393; C -0.429
T51: Y -0.368; F -0.406; D 0.034; H 0.003; M -0.004; K 0.015; Q 0.054; S 0.018; N -0.042; V -0.105; G -0.021; I -0.205; L -0.022; R -0.017; P -0.877; W -0.487; C -0.106; A -0.015; E 0.032
E70: D -0.018; C -0.125; A -0.07
A59: C -0.054; W -0.198; S -0.016; D -0.052; T -0.011; E -0.026; P -0.368; V 0.011; R -0.051; G -0.103; Y -0.072; H 0.227; N -0.278; Q 0.056; L -0.027; M 0.009; I -0.021; F 0; K 0.035
N56: Y 0.23; L 0.058; C 0.145; P -0.301; I -0.049; M 0.078; V 0.066; Q 0.083; T -0.029; W -0.062; D -0.018; H 0.004; A 0.055; F -0.136; K 0.015; E 0.032; G -0.023; S 0.046
W67: Y -0.175; R -0.639; E -0.806; K -0.606; D -0.425; Q -0.712; P -0.646; V -0.412; N -0.65; T -0.805; G -0.727; A -0.406; C -0.939; F 0.018; L -0.475
L64: Q -0.533; E -0.709; T -0.76; V -0.336; I -0.339; W -0.948; N -0.431; F -0.337; D -0.652; Y -0.144; C -0.499; G -0.672; A -0.513; S -0.793; M -0.323; P -0.711
K61: I 0.165; Y 0.007; G -0.305; V -0.105; H -0.265; W -0.07; C -0.012; T -0.132; D -0.635; R -0.051; L -0.198; N -0.388; E -0.022; A -0.074; S -0.149; P -1.19; M -0.1; F -0.349; Q 0.018
